Source: article PMC7017353, “Delineating the Molecular Basis of the Calmodulin–bMunc13-2 Interaction by Cross-Linking/Mass Spectrometry—Evidence for a Novel CaM Binding Motif in bMunc13-2” (Cells, 2020)

Legend:
[1] = biological target: CaM (source not told for this experiment) (UniProt P62157); assay: native MS; 10 µM CaM and segment-A in 300 mM ammonium acetate pH 7.0; residual Ca2+ around 5 µM
[2] = biological target: Photo-Met labeled CaM (UniProt P0DP23); assay: cross-linking; photo-cross-linking of photo-Met-labeled CaM (10 µM) with 10 µM segment-A, -B or -C; 20 mM HEPES, 250 mM NaCl, 0.5 mM TCEP, 7.5% glycerol, pH 7.2, 25 °C; free Ca2+ 75 nM to 1 mM (EGTA system); UV-A 360 nm; SDS-PAGE and LC-MS/MS
[3] = biological target: CaM (source not told for this experiment) (UniProt P62157); assay: native gel or EMSA; native gel electrophoresis of the CaM/segment-A complex (Figure S5)
[4] = biological target: CaM (bovine brain) (bovine) (UniProt P62157); assay: cross-linking; chemical cross-linking (BS3, DSBU 1 mM; s-GMBS in two steps) of CaM (bovine brain, 10 µM) with 10 µM segment-A; 20 mM HEPES, 230 mM NaCl, 0.5 mM TCEP, 7.5% glycerol, pH 7.2, 25 °C; 750 nM and 1 mM Ca2+; SDS-PAGE and LC-MS/MS
[5] = biological target: biotinylated photo-Met-labeled CaM (UniProt P0DP23); assay: SPR; biotinylated photo-Met-CaM immobilised on streptavidin on a PEG-biotin chip; segment-C and variants injected at 0.1–1 µM in 20 mM HEPES, 230 mM NaCl, 0.5 mM TCEP, pH 7.2; 30 µL/min
[6] = biological target: Photo-Met labeled CaM (UniProt P0DP23); assay: cross-linking; photo-cross-linking of photo-Met-labeled CaM with segment-B, SDS-PAGE analysis (data not shown)

Question: How did the stoichiometry N (segment-A per CaM) [1] turn out when “bMunc13-2 segment-A (aa 367–780) (from UniProt Q62769-2 367-780) (domain or fragment)” was run?
Answer: Its stoichiometry N (segment-A per CaM) is 1.

Question: What about the stoichiometry N (segment-A per CaM) [2] of the same substance?
Answer: Its stoichiometry N (segment-A per CaM) is 1.

Question: What about the stoichiometry N (segment-A per CaM) [3] of the same substance?
Answer: Its stoichiometry N (segment-A per CaM) is 1.

Question: What about the stoichiometry N (segment-A per CaM) [4] of the same substance?
Answer: The stoichiometry N (segment-A per CaM) was 1.

Question: What does the source list for “bMunc13-2 segment-C (aa 703–742) (peptide)”?
Answer: stoichiometry N (segment-C per CaM) [2]: 1; Kd [5]: 159 nM

Question: Which stoichiometry N (segment-B per CaM) [6] does the source give for “bMunc13-2 segment-B (aa 367–903) (from UniProt Q62769-2 367-903) (domain or fragment)” here?
Answer: The stoichiometry N (segment-B per CaM) was 1.
